According to patent US20210171580:

Columns and labels:
[1] = system: M160-nuc (synthetic (shuffled viral polymerase fused to Taq 5'-3' nuclease domain)); settings: reference
[2] = system: M401 (synthetic (M160-nuc A339E)); settings: vs M160-nuc
[3] = system: M402 (synthetic (M160-nuc with G46D and 3'-5' exo reactivated)); settings: vs M160-nuc
[4] = system: M403 (synthetic (M160-nuc, both nucleases inactive)); settings: vs M160-nuc
[5] = system: M160 (synthetic (shuffled viral Family A DNA polymerase)); assay: EMSA; settings: 20 mM Tris pH 8.8, 10 mM NaCl, 5 mM MgCl2, 37 C; lacks 5' nuclease domain
[6] = system: M160-nuc (synthetic (shuffled viral polymerase fused to Taq 5'-3' nuclease domain)); assay: EMSA; settings: 20 mM Tris pH 8.8, 10 mM NaCl, 5 mM MgCl2, 37 C
[7] = system: M502 (synthetic (M160-nuc mutant W777C D781A D622N Q627N)); assay: EMSA; settings: 20 mM Tris pH 8.8, 10 mM NaCl, 5 mM MgCl2, 37 C; at assay sensitivity limit
[8] = system: M401 (synthetic (M160-nuc A339E)); assay: cleavage_in_vitro; settings: relative to Pfu polymerase, 37 C, 4 mM MgCl2
[9] = system: M402 (synthetic (M160-nuc with G46D and 3'-5' exo reactivated)); assay: cleavage_in_vitro; settings: relative to Pfu polymerase, 37 C, 4 mM MgCl2
[10] = 50 C, substrate taken from general RT assay
[11] = substrate taken from general polymerase assay

M401 (synthetic (M160-nuc A339E)), sequence (chain, as listed by the source A339E): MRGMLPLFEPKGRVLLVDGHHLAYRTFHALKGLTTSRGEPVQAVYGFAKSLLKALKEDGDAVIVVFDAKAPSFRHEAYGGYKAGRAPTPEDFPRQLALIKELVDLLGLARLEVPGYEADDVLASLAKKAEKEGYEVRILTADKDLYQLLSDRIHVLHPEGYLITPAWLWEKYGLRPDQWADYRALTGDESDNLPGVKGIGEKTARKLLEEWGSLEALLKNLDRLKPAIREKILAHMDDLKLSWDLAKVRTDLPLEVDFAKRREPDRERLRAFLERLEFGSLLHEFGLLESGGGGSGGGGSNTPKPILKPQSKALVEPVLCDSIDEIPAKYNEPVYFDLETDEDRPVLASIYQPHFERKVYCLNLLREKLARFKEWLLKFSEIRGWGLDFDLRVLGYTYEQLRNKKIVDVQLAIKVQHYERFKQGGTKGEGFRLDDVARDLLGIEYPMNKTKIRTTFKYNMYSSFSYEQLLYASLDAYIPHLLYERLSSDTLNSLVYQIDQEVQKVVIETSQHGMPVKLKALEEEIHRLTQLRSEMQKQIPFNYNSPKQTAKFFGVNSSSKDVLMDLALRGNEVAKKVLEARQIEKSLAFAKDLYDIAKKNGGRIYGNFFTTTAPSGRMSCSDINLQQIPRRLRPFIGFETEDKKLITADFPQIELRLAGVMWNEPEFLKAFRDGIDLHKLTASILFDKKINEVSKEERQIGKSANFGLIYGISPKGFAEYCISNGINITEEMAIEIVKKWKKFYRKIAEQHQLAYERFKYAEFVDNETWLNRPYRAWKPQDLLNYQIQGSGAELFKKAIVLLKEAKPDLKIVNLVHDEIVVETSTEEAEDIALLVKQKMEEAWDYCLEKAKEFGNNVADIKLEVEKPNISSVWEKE
M402 (synthetic (M160-nuc with G46D and 3'-5' exo reactivated)), sequence (chain, as listed by the source G46D): as the sequence (chain, as listed by the source A339E) above, with G46D counted along it
M403 (synthetic (M160-nuc, both nucleases inactive)), sequence (chain, as listed by the source): as the sequence (chain, as listed by the source A339E) above, with G46D, E339A counted along it
M502 (synthetic (M160-nuc mutant W777C D781A D622N Q627N)), sequence (chain, as listed by the source W777C D781A D622N Q627N): as the sequence (chain, as listed by the source A339E) above, with E339A, D622N, Q627N, W777C, D781A counted along it

poly(A)/oligo(dT)20
relative enzyme activity (relative RT activity) ([1]; 50 C): 1
relative enzyme activity (relative RT activity) [2, 10]: 1.02
relative enzyme activity (relative RT activity) [3, 10]: 0.98
relative enzyme activity (relative RT activity) [4, 10]: 1.03

primed-template DNA (Yamagami et al. 2014)
Kd [5]: 946 nM
Kd [6]: 78.9 nM
Kd [7]: < 6.1 nM

primed M13mp18 DNA
relative enzyme activity (relative pol activity) [1, 11]: 1
relative enzyme activity (relative pol activity) [2, 11]: 0.91
relative enzyme activity (relative pol activity) [3, 11]: 1.05
relative enzyme activity (relative pol activity) [4, 11]: 0.72

59-mer single-stranded oligonucleotide
relative enzyme activity (relative ssExo activity) [8]: 0.76
relative enzyme activity (relative ssExo activity) [9]: 0.89
